According to article PMC4797284:

How the values were obtained:
[1] = target: RepDE, chimera of the 21 kDa fragment of RepD fused to the 14 kDa fragment of RepE (residues 35-314) (Staphylococcus aureus) (UniProt P03065); experiment: crystal structure
[2] = target: RepDN, chimera of the 21 kDa fragment of RepD fused to the 14 kDa fragment of RepN (residues 35-314) (Staphylococcus aureus) (UniProt P03065); experiment: crystal structure
[3] = target: RepSTK1, core domain of the replication initiator protein of cryptic plasmid pSTK1 from Geobacillus stearothermophilus (residues 1-269) (Geobacillus stearothermophilus); experiment: crystal structure; RepSTK1 crystals, space group P2(1)2(1)2(1), four molecules per asymmetric unit; protein dialysed against 50 mM Tris-HCl pH 7.5, 700 mM KCl; grown at 294 K as described in ref. 27; data at 100 K

For “RepDE, chimera of the 21 kDa fragment of RepD fused to the 14 kDa fragment of RepE (residues 35-314) (from UniProt P03065;P12053)”, the stoichiometry N [1] was 2.
“RepDN, chimera of the 21 kDa fragment of RepD fused to the 14 kDa fragment of RepN (residues 35-314) (from UniProt P03065;P19529)” showed a stoichiometry N [2] of 2.
“RepSTK1, core domain of the replication initiator protein of cryptic plasmid pSTK1 from Geobacillus stearothermophilus (residues 1-269) (domain or fragment)” showed a stoichiometry N [3] of 2.
